Experiments:
[1] = target: proprietary Ral effector protein of the RalA G-LISA Activation Assay Kit; test: ELISA-based assay; settings: Absorbances normalized to a no template control (NTC); mean of one experiment performed in triplicate; parent: 1.163
[2] = target: proprietary Ral effector protein of the RalA G-LISA Activation Assay Kit; test: ELISA; RalA G-LISA Activation Assay Kit (colorimetric); Ral effector protein on the Ral-BP binding plate; purified RALA incubated in the presence or absence of 15 uM GTP for 1.5 h at 25 °C, then 23.75 ng of RALA/GTP mixture applied; absorbances normalized to a no template control; one experiment in triplicate

wild-type RALA (RAS-like small GTPase), 6-His-tagged recombinant protein (from UniProt P11233) D130G
response [1]: 0.281 absorbance

wild-type RALA (RAS-like small GTPase), 6-His-tagged recombinant protein (from UniProt P11233) S157A
response [1]: 1.83 absorbance

wild-type RALA (RAS-like small GTPase), 6-His-tagged recombinant protein (from UniProt P11233) V25L
response [1]: 0.286 absorbance

wild-type RALA (RAS-like small GTPase), 6-His-tagged recombinant protein (from UniProt P11233) V25M
response [1]: 0.649 absorbance

B1: RALA G23D, 6-His-tagged recombinant protein (natural protein)
chain: MAANKPKGQNSLALHKVIMVGSDGVGKSALTLQFMYDEFVEDYEPTKADSYRKKVVLDGEEVQIDILDTAGQEDYAAIRDNYFRSGEGFLCVFSITEMESFAATADFREQILRVKEDENVPFLLVGNKSDLEDKRQVSVEEAKNRAEQWNVNYVETSAKTRANVDKVFFDLMREIRARKMEDSKEKNGKKKRKSLAKRIRERCCIL
fold change of binding against wild type [2]: 2 fold

From publication PMC6291162
